Laboratory results published in paper PMC10611751 (2023).

B1: E-cadherin residues 755-770 (site-1) [mouse] / Ankyrin-G 24 ANK repeats (residues 38-855) [not stated] (parent complex)
chain 1: YYYDEEGGGEEDQDFD
chain 2: KSDANASYLRAARAGHLEKALDYIKNGVDVNICNQNGLNALHLASKEGHVEVVSELLQREANVDAATKKGNTALHIASLAGQAEVVKVLVTNGANVNAQSQNGFTPLYMAAQENHLEVVRFLLDNGASQSLATEDGFTPLAVALQQGHDQVVSLLLENDTKGKVRLPALHIAARKDDTKAAALLLQNDTNADIESKMVVNRATESGFTPLHIAAHYGNINVATLLLNRAAAVDFTARNDITPLHVASKRGNANMVKLLLDRGAKIDAKTRDGLTPLHCGARSGHEQVVEMLLDRAAPILSKTKNGLSPLHMATQGDHLNCVQLLLQHNVPVDDVTNDYLTALHVAAHCGHYKVAKVLLDKKANPNAKALNGFTPLHIACKKNRIRVMELLLKHGASIQAVTESGLTPIHVAAFMGHVNIVSQLMHHGASPNTTNVRGETALHMAARSGQAEVVRYLVQDGAQVEAKAKDDQTPLHISARLGKADIVQQLLQQGASPNAATTSGYTPLHLSAREGHEDVAAFLLDHGASLSITTKKGFTPLHVAAKYGKLEVASLLLQKSASPDAAGKSGLTPLHVAAHYDNQKVALLLLDQGASPHAAAKNGYTPLHIAAKKNQMDIATSLLEYGADANAVTRQGIASVHLAAQEGHVDMVSLLLSRNANVNLSNKSGLTPLHLAAQEDRVNVAEVLVNQGAHVDAQTKMGYTPLHVGCHYGNIKIVNFLLQHSAKVNAKTKNGYTPLHQAAQQGHTHIINVLLQNNASPNELTVNGNTALAIARRLGYISVVDTLKVVTEEIMTTTTITEKHKMNVPETMNEVLDMS
B2: E-cadherin residues 828-842 (site-2) [mouse] / Ankyrin-G 24 ANK repeats (residues 38-855) [not stated] (parent complex)
chain 1: PYDSLLVFDYEGSGS
chain 2: B1 chain 2
B3: E-cadherin residues 854-869 (site-3) [mouse] / Ankyrin-G 24 ANK repeats (residues 38-855) [not stated] (parent complex)
chain 1: ESDQDQDYDYLNEWGN
chain 2: B1 chain 2

Variants of: B1
Assay: ITC; parent: 900 nM

Variant | Kd [µM]
chain 1 AYADEEGGGEEDQDFD [chain 1 Y1A, chain 1 Y3A] | 4.1
chain 1 YYADEEGGGEEDQDFD [chain 1 Y3A] | 2.2
chain 1 YAADEEGGGEEDQDFD [chain 1 Y2A, chain 1 Y3A] | 7.1
chain 1 AYYDEEGGGEEDQDFD [chain 1 Y1A] | 5
chain 1 YAYDEEGGGEEDQDFD [chain 1 Y2A] | 2.2
chain 1 AAYDEEGGGEEDQDFD [chain 1 Y1A, chain 1 Y2A] | 4.2

Variants of: B2
Assay: ITC; parent: 1.9e+03 nM

Variant | Kd [µM]
chain 1 PYDSLLVFDAEGSGS [chain 1 Y10A] | 9.5
chain 1 PADSLLVFDYEGSGS [chain 1 Y2A] | 1.7

Variants of: B3
Assay: ITC; parent: 1.8e+03 nM

Variant | Kd [µM]
chain 1 ESDQDQDADYLNEWGN [chain 1 Y8A] | 3.2
chain 1 ESDQDQDYDYLNEAGN [chain 1 W14A] | 3.9
chain 1 ESDQDQDADALNEWGN [chain 1 Y8A, chain 1 Y10A] | 5.8
chain 1 ESDQDQDYDALNEWGN [chain 1 Y10A] | 3.9
